Experimental data taken from patent US20220089722A1 (published 2022).
Substitutions are numbered along the chain they refer to.

B1: IgFD-31(anti-CD3/EGFR) (bispecific antibody)
chain 1: EVQLVESGGGLVQPGGSLRLSCAASGFTFNTYAMNWVRQAPGKGLEWVARIRSKYNNYATYYADSVKDRFTISRDDSKNTLYLQMNSLRAEDTAVYYCVRHGNFGNSYVSWFAYWGQGTLVTVSSASTKGPSVFPLAPSSKSTSGGTAALGCLVKDYFPEPVTVSWNSGALTSGVHTFPAVLQSSGLYSLSSVVTVPSSSLGTQTYICNVNHKPSNTKVDKKVEPKSCGGSGAKLAALKAKLAALKGGGGSDKTHTCPPCPAPPVAGPSVFLFPPKPKDTLMISRTPEVTCVVVDVSHEDPEVKFNWYVDGVEVHNAKTKPREEQYNSTYRVVSVLTVLHQDWLNGKEYKCKVSNKGLPSSIEKTISKAKGQPREPQVYTLPPSRDELTKNQVSLTCLVKGFYPSDIAVEWESNGQPENNYKTTPPVLDSDGSFFLYSKLTVDKSRWQQGNVFSCSVMHEALHNHYTQKSLSLSPGK
chain 2: QAVVTQEPSLTVSPGGTVTLTCRSSTGAVTTSNYANWVQQKPDHLFRGLIGGTNKRAPGTPARFSGSLLGDKAALTISGAQPEDEAEYYCALWYSNLWVFGGGTKLTVLKRTVAAPSVFIFPPSDEQLKSGTASVVCLLNNFYPREAKVQWKVDNALQSGNSQESVTEQDSKDSTYSLSSTLTLSKADYEKHKVYACEVTHQGLSSPVTKSFNRGECGGGGSELAALEAELAALEAGGSGDKTHTCPPCPAPPVAGPSVFLFPPKPKDTLMISRTPEVTCVVVDVSHEDPEVKFNWYVDGVEVHNAKTKPREEQYNSTYRVVSVLTVLHQDWLNGKEYKCKVSNKGLPSSIEKTISKAKGQPREPQVYTLPPSRDELTKNQVSLTCLVKGFYPSDIAVEWESNGQPENNYKTTPPVLDSDGSFFLYSKLTVDKSRWQQGNVFSCSVMHEALHNHYTQKSLSLSPGKGGSGGSGGGGSGGGGSDIQMTQSPSSLSASVGDRVTITCQASQDISNYLNWYQQKPGKAPKLLIYDASNLETGVPSRFSGSGSGTDFTFTISSLQPEDIATYFCQHFDHLPLAFGGGTKVEIKGGGGSGGGGSGGGGSQVQLQESGPGLVKPSETLSLTCTVSGGSVSSGDYYWTWIRQSPGKGLEWIGHIYYSGNTNYNPSLKSRLTISIDTSKTQFSLKLSSVTAADTAIYYCVRDRVTGAFDIWGQGTMVTVSS
B2: IgFD-7(anti-CD19/CD3) (bispecific antibody)
chain 1: EVQLVESGGGLVQPGGSLRLSCAASGFTFNTYAMNWVRQAPGKGLEWVARIRSKYNNYATYYADSVKDRFTISRDDSKNTLYLQMNSLRAEDTAVYYCVRHGNFGNSYVSWFAYWGQGTLVTVSSASTKGPSVFPLAPSSKSTSGGTAALGCLVKDYFPEPVTVSWNSGALTSGVHTFPAVLQSSGLYSLSSVVTVPSSSLGTQTYICNVNHKPSNTKVDKKVEPKSCDKTHTCPPCPAPPVAGPSVFLFPPKPKDTLMISRTPEVTCVVVDVSHEDPEVKFNWYVDGVEVHNAKTKPREEQYNSTYRVVSVLTVLHQDWLNGKEYKCKVSNKGLPSSIEKTISKAKGQPREPQVYTLPPSRDELTKNQVSLTCLVKGFYPSDIAVEWESNGQPENNYKTTPPVLDSDGSFFLYSKLTVDKSRWQQGNVFSCSVMHEALHNHYTQKSLSLSPGK
chain 2: QAVVTQEPSLTVSPGGTVTLTCRSSTGAVTTSNYANWVQQKPDHLFRGLIGGTNKRAPGTPARFSGSLLGDKAALTISGAQPEDEAEYYCALWYSNLWVFGGGTKLTVLKRTVAAPSVFIFPPSDEQLKSGTASVVCLLNNFYPREAKVQWKVDNALQSGNSQESVTEQDSKDSTYSLSSTLTLSKADYEKHKVYACEVTHQGLSSPVTKSFNRGECDKTHTCPPCPAPPVAGPSVFLFPPKPKDTLMISRTPEVTCVVVDVSHEDPEVKFNWYVDGVEVHNAKTKPREEQYNSTYRVVSVLTVLHQDWLNGKEYKCKVSNKGLPSSIEKTISKAKGQPREPQVYTLPPSRDELTKNQVSLTCLVKGFYPSDIAVEWESNGQPENNYKTTPPVLDSDGSFFLYSKLTVDKSRWQQGNVFSCSVMHEALHNHYTQKSLSLSPGKSGGGGSGGGGSGGGGSDIQMTQTTSSLSASLGDRVTISCRASQDISKYLNWYQQKPDGTVKLLIYHTSRLHSGVPSRFSGSGSGTDYSLTISNLEQEDIATYFCQQGNTLPYTFGGGTKLEITGGGGSGGGGSGGGGSEVKLQESGPGLVAPSQSLSVTCTVSGVSLPDYGVSWIRQPPRKGLEWLGVIWGSETTYYNSALKSRLTIIKDNSKSQVFLKMNSLQTDDTAIYYCAKHYYYGGSYAMDYWGQGTSVTVSS
B3: IgFD-25(anti-CD3/EGFR) (bispecific antibody)
chain 1: B2 chain 1 with S361C, T373W
chain 2: QAVVTQEPSLTVSPGGTVTLTCRSSTGAVTTSNYANWVQQKPDHLFRGLIGGTNKRAPGTPARFSGSLLGDKAALTISGAQPEDEAEYYCALWYSNLWVFGGGTKLTVLKRTVAAPSVFIFPPSDEQLKSGTASVVCLLNNFYPREAKVQWKVDNALQSGNSQESVTEQDSKDSTYSLSSTLTLSKADYEKHKVYACEVTHQGLSSPVTKSFNRGECDKTHTCPPCPAPPVAGPSVFLFPPKPKDTLMISRTPEVTCVVVDVSHEDPEVKFNWYVDGVEVHNAKTKPREEQYNSTYRVVSVLTVLHQDWLNGKEYKCKVSNKGLPSSIEKTISKAKGQPREPQVCTLPPSRDELTKNQVSLSCAVKGFYPSDIAVEWESNGQPENNYKTTPPVLDSDGSFFLVSKLTVDKSRWQQGNVFSCSVMHEALHNHYTQKSLSLSPGKGGSGGSGGGGSGGGGSDIQMTQSPSSLSASVGDRVTITCQASQDISNYLNWYQQKPGKAPKLLIYDASNLETGVPSRFSGSGSGTDFTFTISSLQPEDIATYFCQHFDHLPLAFGGGTKVEIKGGGGSGGGGSGGGGSQVQLQESGPGLVKPSETLSLTCTVSGGSVSSGDYYWTWIRQSPGKGLEWIGHIYYSGNTNYNPSLKSRLTISIDTSKTQFSLKLSSVTAADTAIYYCVRDRVTGAFDIWGQGTMVTVSS
B4: IgFD-26(anti-CD3/EGFR) (bispecific antibody)
chain 1: not shown
chain 2: QAVVTQEPSLTVSPGGTVTLTCRSSTGAVTTSNYANWVQQKPDHLFRGLIGGTNKRAPGTPARFSGSLLGDKAALTISGAQPEDEAEYYCALWYSNLWVFGGGTKLTVLKRTVAAPSVFIFPPSDEQLKSGTASVVCLLNNFYPREAKVQWKVDNALQSGNSQESVTEQDSKDSTYSLSSTLTLSKADYEKHKVYACEVTHQGLSSPVTKSFNRGECDKTHTCPPCPAPELLGGPSVFLFPPKPKDTLMISRTPEVTCVVVDVSHEDPEVKFNWYVDGVEVHNAKTKPREEQYASTYRVVSVLTVLHQDWLNGKEYKCKVSNKALPAPIEKTISKAKGQPREPQVCTLPPSREEMTKNQVSLSCAVKGFYPSDIAVEWESNGQPENNYKTTPPVLDSDGSFFLVSKLTVDKSRWQQGNVFSCSVMHEALHNHYTQKSLSLSPGKGGSGGSGGGGSGGGGSDIQMTQSPSSLSASVGDRVTITCQASQDISNYLNWYQQKPGKAPKLLIYDASNLETGVPSRFSGSGSGTDFTFTISSLQPEDIATYFCQHFDHLPLAFGGGTKVEIKGGGGSGGGGSGGGGSQVQLQESGPGLVKPSETLSLTCTVSGGSVSSGDYYWTWIRQSPGKGLEWIGHIYYSGNTNYNPSLKSRLTISIDTSKTQFSLKLSSVTAADTAIYYCVRDRVTGAFDIWGQGTMVTVSS

Tests used:
[1] = target: T1, hEGFR-6-his (SinoBiological) (human, UniProt P00533 25-645); test: ELISA
[2] = target: T1, hEGFR-6-his (SinoBiological); test: ELISA; printed value although curve is flat

Binder | Kd [1] [nM] | Kd [2] [nM]
B1 | 0.161 | 
B2 |  | 0.161
B3 | 0.15 | 
B4 | 0.139 | 
